According to patent publication US7228238B2, “Algorithmic design of peptides for binding and/or modulation of the functions of receptors and/or other proteins” (Cielo Institute, Inc., priority 2000, dated 2007):
Each block holds one substance with its values, some of them ahead of it.

Assays:
[1] = molecular target: T1, human long isoform D2DA receptor (Homo sapiens, UniProt P14416); assay: external acidification rate (EAR) by microphysiometry, response to dopamine, D2DA receptor-transfected CHO cell system; conditions: peptide 1 μM; for MODULATORY EFFECT CHO: significance class of effect on EAR response to dopamine ≈1 μM; for MODULATORY EFFECT CHO / DIRECT EFFECT CHO: D2DA-transfected CHO cells; for DIRECT EFFECT CHO: significance class of effect on EAR
T1 sequence (P14416 whole entry, canonical isoform): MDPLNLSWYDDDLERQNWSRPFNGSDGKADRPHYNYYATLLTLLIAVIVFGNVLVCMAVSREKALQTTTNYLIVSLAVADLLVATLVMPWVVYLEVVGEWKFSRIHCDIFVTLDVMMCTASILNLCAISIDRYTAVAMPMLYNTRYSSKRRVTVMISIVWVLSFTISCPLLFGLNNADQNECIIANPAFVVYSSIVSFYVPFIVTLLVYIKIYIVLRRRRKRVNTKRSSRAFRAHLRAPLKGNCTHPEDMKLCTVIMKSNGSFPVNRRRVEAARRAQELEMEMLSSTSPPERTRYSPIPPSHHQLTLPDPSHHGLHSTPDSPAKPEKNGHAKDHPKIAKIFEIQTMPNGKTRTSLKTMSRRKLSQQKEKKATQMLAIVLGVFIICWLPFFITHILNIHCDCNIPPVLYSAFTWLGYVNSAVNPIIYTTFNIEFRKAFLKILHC
Procedure: (§2) Both cell systems were stably transfected with human long isoform D2DA receptor cDNA, which had been isolated from a human striatal cDNA library, sequenced and subcloned into the expression vector pRC/RSV (Invitrogen). […] Both systems were grown to confluence in DMEM containing 10% FBS. The cells were serum-starved 18–24 hours prior to use, and then assayed for EAR using a microphysiometer (Cytosensor; Molecular Devices, Sunnyvale, Calif.) in low buffering DMEM with 0.1% culture grade BSA.
(§3) The determination of EAR by microphysiometry involves a proton-sensitive silicon semiconductor photocurrent-driven sensor which measures changes in EAR resulting from effector-evoked alterations in cellular glycolytic and respiratory energy metabolism and/or alterations in sodium-hydrogen exchanges across cellular membranes. Protonic H^+, generated by such energy metabolism or exchanges, neutralizes the charge on the surface of the semiconductor, reducing the photocurrent produced at a rate linearly related to H^+production.
(§4) The microphysiometer monitors pH in flow-through chambers containing the receptor-transfected cells. Generally, if the cells lines used are adherent cell lines, the cells are seeded into “capsule cups”. If the cell lines are non-adherent cell lines, then the cells are immobilized in a fibrin matrix. For all microphysiometer runs, modified low buffering DMEM containing 0.1% BSA is pumped across the cells at a rate of approximately 100 μL/min, during which time the pH of the microenvironment surrounding the sensor surface is maintained at a relatively constant value. The measurement of the acid output rate of the cells, termed the acidification rate, is made when the fluid flow is periodically halted to allow buildup of acidic metabolites in the chamber, resulting in an alteration in the pH of the fluid. The pH is measured in millivolts, and converted to milli-pH units. The changes in pH are expressed as changes in milli-pH units per minute following the linear, time-dependent buildup of H^+during intermittent periods of pump arrest followed by washout. […] Ligand induced, receptor-mediated increases in cell metabolic and Na^+—H^+membrane regulatory activity is seen as an increase in the acidification rate.
(§5) Small Kolmogorov-Smirnov distances supported the assumption of normality in all of the data sets, so within chamber-paired, one-tailed t-tests with a significance criterion of ρ=0.05 were used.

[2] = molecular target: T1, human long isoform D2DA receptor; assay: external acidification rate (EAR) by microphysiometry, response to dopamine, D2DA receptor-transfected mouse LtK cell system; conditions: for MODULATORY EFFECT LtK: significance class of effect on EAR response to dopamine ≈1 μM; for MODULATORY EFFECT LtK / DIRECT EFFECT LtK / influence on dopamine-induced increment in total milli-pH units (EAR response to dopamine) / ρ of one-tailed t-test paired within chamber, peptide influence on EAR response to dopamine: peptide 1 μM; for MODULATORY EFFECT LtK / DIRECT EFFECT LtK: D2DA-transfected LtK cells; for DIRECT EFFECT LtK: significance class of effect on EAR; for influence on dopamine-induced increment in total milli-pH units (EAR response to dopamine) / ρ of one-tailed t-test paired within chamber, peptide influence on EAR response to dopamine: LtK system, dopamine ≈1 μM
Procedure: as §2, §3, §4, §5

[3] = molecular target: T2, human muscarinic M1 receptor (Homo sapiens, UniProt P11229); assay: EAR test system, response to carbachol, M1 receptor-transfected CHO-K1 cells; assay type: cell-based; conditions: for MODULATORY EFFECT: significance class of effect on EAR due to carbachol
T2 construct: expressed in transfected cells; host or cells: CHO-K1 cells; expression vector pcDNA3; calcium phosphate method; geneticin selection
T2 sequence (P11229 1-460): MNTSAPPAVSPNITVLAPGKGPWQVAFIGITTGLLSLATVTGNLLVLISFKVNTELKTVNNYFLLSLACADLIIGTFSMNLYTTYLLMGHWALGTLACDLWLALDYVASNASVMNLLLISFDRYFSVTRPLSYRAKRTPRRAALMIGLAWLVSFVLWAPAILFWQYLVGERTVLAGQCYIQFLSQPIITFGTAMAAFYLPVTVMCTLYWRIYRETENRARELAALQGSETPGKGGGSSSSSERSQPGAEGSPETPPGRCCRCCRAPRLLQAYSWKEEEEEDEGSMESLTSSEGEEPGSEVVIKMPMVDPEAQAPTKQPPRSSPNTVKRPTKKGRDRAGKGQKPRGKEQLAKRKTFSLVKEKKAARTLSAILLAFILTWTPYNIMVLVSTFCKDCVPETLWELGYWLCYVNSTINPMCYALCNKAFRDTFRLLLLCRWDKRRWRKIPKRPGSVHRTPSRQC
Procedure: (§1) Peptides derived from receptor protein systems other than the D2DA receptor were also tested for their effects on their respective receptors. For the human muscarinic M1 receptor, CHO cells were transfected with the muscarinic M1 receptor cDNA derived from a human cDNA library essentially as described by Buckley et al. (Mol. Pharmacol. 1989 35:469–476). Briefly, the coding region of the M1 receptor was obtained from a human cDNA library and cloned into the expression vector pcDNA3 (Invitrogen, San Diego, Calif.). CHO-K1 cells were transformed with the construct, using the calcium phosphate method. Stably expressing transformants were obtained in the presence of 250 μg/ml geneticin. Transformed cell lines expressing the human NGF receptor also were obtained. The effects of the peptides derived by the methods of the present invention on the activities of the corresponding receptors in the transformed cell lines were evaluated in the same manner as described above for the D2DA-targeted algorithmically derived peptides, using the EAR test system.

[4] = test system: human NGF receptor; assay: EAR test system, transformed cell line expressing the NGF receptor, response to NGF; assay type: cell-based; conditions: for MODULATORY EFFECT: significance class of change in EAR response to NGF; for MODULATORY EFFECT / DIRECT EFFECT: NGF receptor cell line; for DIRECT EFFECT: significance class of change in EAR; for effect on EAR response to NGF: NGF receptor inhibition assay, PC-12 cells
Procedure: as §1
The hydrophobic wavelength of a peptide containing L-amino acids is the same as a peptide containing D-amino acids in which the sequence is inverted. Such “retro-inverso” peptides have been previously described (Chorev, M. and Goodman, M. (1995) Trends Biotechnol. 13:438–445), but their use as mode-matched binding peptides has never before been contemplated. A retro-inverso peptide containing D-amino acids and having the sequence […] was synthesized (SEQ ID NO:97). This sequence of this peptide is inverted from that of peptide of SEQ ID NO:27, used in the NGF receptor inhibition assay. […] The peptide of SEQ ID NO:97 was tested in the same assay as the L-amino acid, forward sequence peptide of SEQ ID NO: 27.

[5] = CHO cell system, dopamine ≈1 μM

MODULATORY EFFECT CHO [1]: *** (***ρ ≦ 0.001) | DIRECT EFFECT CHO [1]: *** (***ρ ≦ 0.001) | MODULATORY EFFECT LtK [2]: *** (***ρ ≦ 0.001) | DIRECT EFFECT LtK [2]: *** (***ρ ≦ 0.001)
Substance: 1 (SHQRWEYKGVNCIVY) [compound 1]

MODULATORY EFFECT LtK [2]: *** (***ρ ≦ 0.001)
Substance: 3 (ERNRKPYRPKNKYLL) [compound 3]

MODULATORY EFFECT LtK [2]: *** (***ρ ≦ 0.001)
Substance: 4 (ERNKLNYKNKNKYIL) [compound 4]

MODULATORY EFFECT CHO [1]: *** (***ρ ≦ 0.001) | MODULATORY EFFECT LtK [2]: * (*0.01 < ρ ≦ 0.05)
Substance: 5 (SHTAYHWMSCGKIVI) [compound 5]

MODULATORY EFFECT LtK [2]: *** (***ρ ≦ 0.001)
Substance: 7 (SHQAWRYKNVNCYVI) [compound 7]

DIRECT EFFECT CHO [1]: ** (**0.001 < ρ ≦ 0.01) | DIRECT EFFECT LtK [2]: *** (***ρ ≦ 0.001)
Substance: 8 (GETAFRYVNCNVYVYI) [compound 8]

Substance: 13 (FSFQCKSINYEALGY) [compound 13]
DIRECT EFFECT ([3]; significance class of effect on EAR): ** (** 0.001 < ρ ≦ 0.01) | MODULATORY EFFECT [3]: ** (** 0.001 < ρ ≦ 0.01)

Substance: 14 (FSFGVKSWQYHALGY) [compound 14]
MODULATORY EFFECT [3]: * (* 0.01 < ρ ≦ 0.05)

Substance: 15 (ITFTVKGLTLAAFTY) [compound 15]
MODULATORY EFFECT [3]: *** (*** ρ ≦ 0.001)

Substance: 16 (ISFNKCTWSFERYSL) [compound 16]
MODULATORY EFFECT [3]: * (* 0.01 < ρ ≦ 0.05)

Substance: 17 (FNLSVKQWNYRAYNL) [compound 17]
MODULATORY EFFECT [3]: ** (** 0.001 < ρ ≦ 0.01)

Substance: 23 (DLCRSARSDIEVTEY) [compound 23]
MODULATORY EFFECT [4]: *** (*** ρ ≦ 0.001) | DIRECT EFFECT [4]: ** (** 0.001 < ρ ≦ 0.01)

Substance: 24 (RFVASAATEIEVNRL) [compound 24]
MODULATORY EFFECT [4]: ** (** 0.001 < ρ ≦ 0.01)

Substance: 25 (HYCASADPRIHKNAL) [compound 25]
MODULATORY EFFECT [4]: *** (*** ρ ≦ 0.001)

Substance: 26 (DFVDGAAGRLHKGEY) [compound 26]
MODULATORY EFFECT [4]: ** (** 0.001 < ρ ≦ 0.01)

Substance: 27 (DIKATEATDIEKGHL) [compound 27]
MODULATORY EFFECT [4]: *** (*** ρ ≦ 0.001)

Substance: 28 (RFVDNDATDIEKGRI) [compound 28]
MODULATORY EFFECT [4]: *** (*** ρ ≦ 0.001) | DIRECT EFFECT [4]: * (* 0.01 < ρ ≦ 0.05)

Substance: 29 (RFVRGDRNHFDCGEL) [compound 29]
MODULATORY EFFECT [4]: *** (*** ρ ≦ 0.001) | DIRECT EFFECT [4]: * (* 0.01 < ρ ≦ 0.05)

Substance: 30 (HFVRNERTHFDVSAL) [compound 30]
MODULATORY EFFECT [4]: * (* 0.01 < ρ ≦ 0.05) | DIRECT EFFECT [4]: * (* 0.01 < ρ ≦ 0.05)

influence on dopamine-induced increment in total milli-pH units (EAR response to dopamine) [2]: statistically significant activation
Substance: ERNRKPLRPKNKYLI [E . . . PL]

influence on dopamine-induced increment in total milli-pH units (EAR response to dopamine) [2]: statistically significant activation
Substance: ERNRKPYRPKNKYLL [E . . . PY]

Substance: H-DIKATEATDIEKGHL-OH [SEQ ID NO:27]
effect on EAR response to NGF [4]: significantly down-regulated

influence on dopamine-induced increment in total milli-pH units (EAR response to dopamine) [1, 5]: significantly potentiated | ρ of one-tailed t-test paired within chamber, peptide influence on EAR response to dopamine [1, 5]: < 0.0001 | influence on dopamine-induced increment in total milli-pH units (EAR response to dopamine) [2]: significantly potentiated | ρ of one-tailed t-test paired within chamber, peptide influence on EAR response to dopamine [2]: 0.0009
Substance: H-SHQRWEYKGVNCIVY-OH [SEQ ID NO:1]
EAR dose response curves ([2]; LtK cells, dopamine 10^−8.5M to 10^−5.5M, peptide 10 nM to 3 μM): asymptotic sigmoidal kinetics, suggestive of positive cooperativity

influence on dopamine-induced increment in total milli-pH units (EAR response to dopamine) [1, 5]: did not significantly potentiate | influence on dopamine-induced increment in total milli-pH units (EAR response to dopamine) [2]: did not significantly potentiate | ρ of one-tailed t-test paired within chamber, peptide influence on EAR response to dopamine [2]: > 0.05
Substance: H-THQAFHYCNKQCLVI-OH (cysteine pairing not given here) [SEQ ID NO:2]

Substance: LHGKEIDTAETAKID [SEQ ID NO:97]
effect on EAR response to NGF [4]: also down-regulated the EAR response of PC-12 cells to NGF, to an extent comparable
